The data set concerns the molecule itself. The data set is described as follows: in-vitro amyloid aggregation.

We go through one protein from paper doi:10.1101/2022.03.26.485915 (bioRxiv, 2022).

B1: Envelope domain III (EDIII) protein of ZIKV (domain or fragment, Zika virus)
chain: MGVSYSLCTAAFTFTKIPAETLHGTVTVEVQYAGTDGPCKVPAQMAVDMQTLTPVGRLITANPVITESTENSKMMLELDPPFGDSYIVIGVGEKKITHHWHRSGSTIGKGQFYLNELE
As to B1, the binding result is on record as “binds”.
